Experimental findings from article PMC2148190 (The Journal of Cell Biology, 1999) are described below.

Test [1] deals with His-tagged human Bcl-xL lacking 24 amino acids at the COOH terminus (human, UniProt Q07817-1 1-209). The test is described as follows: co-IP.
In test [2] the target is Human Bcl-2 lacking 34 amino acids at the COOH terminus (human, UniProt P10415 1-205). The test is described as follows: co-IP.
Chain of Human Bcl-2 lacking 34 amino acids at the COOH terminus (P10415 1-205): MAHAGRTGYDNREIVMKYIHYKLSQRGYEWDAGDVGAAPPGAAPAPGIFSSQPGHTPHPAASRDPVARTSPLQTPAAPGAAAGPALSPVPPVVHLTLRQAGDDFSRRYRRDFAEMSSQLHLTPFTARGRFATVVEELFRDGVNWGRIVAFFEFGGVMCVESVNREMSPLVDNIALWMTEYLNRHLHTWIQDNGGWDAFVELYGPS

Chain of His-tagged human Bcl-xL lacking 24 amino acids at the COOH terminus (Q07817 1-209): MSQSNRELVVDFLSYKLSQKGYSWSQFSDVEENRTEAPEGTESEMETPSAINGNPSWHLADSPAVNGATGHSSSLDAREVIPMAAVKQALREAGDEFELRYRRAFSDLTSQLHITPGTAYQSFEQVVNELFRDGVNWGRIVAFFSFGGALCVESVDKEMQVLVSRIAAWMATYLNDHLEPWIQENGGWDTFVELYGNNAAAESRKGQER

B1: His-tagged Bid (recombinant wild-type Bid) (natural protein)
chain: MDSEVSNGSGLGAEHITDLLVFGFLQSSGCTRQELEVLGRELPVQAYWEADLEDELQTDGSQASRSFNQGRIEPDSESQEEIIHNIARHLAQIGDEMDHNIQPTLVRQLAAQFMNGSLSEEDKRNCLAKALDEVKTAFPRDMENDKAMLIMTMLLAKKVASHAPSLLRDVFHTTVNFINQNLFSYVRNLVRNEMD
In the case of B1, the binding result in test [1] and in test [2] was “binds” each time.

B2: BidmIII-3 (G94→ A) (natural protein)
chain: MDSEVSNGSGLGAEHITDLLVFGFLQSSGCTRQELEVLGRELPVQAYWEADLEDELQTDGSQASRSFNQGRIEPDSESQEEIIHNIARHLAQIADEMDHNIQPTLVRQLAAQFMNGSLSEEDKRNCLAKALDEVKTAFPRDMENDKAMLIMTMLLAKKVASHAPSLLRDVFHTTVNFINQNLFSYVRNLVRNEMD
With B2, the binding result in test [1] and in test [2] was “binds” each time.
